Here are results for one substance from article PMC7367873, “Dissecting the sequence determinants for dephosphorylation by the catalytic subunits of phosphatases PP1 and PP2A” (Nature Communications, 2020).

For the assay, the target named is T1, PP2Ac (Homo sapiens, UniProt P67775).
T1 construct: purchased Cayman Chemical 10011237
Description: Phosphopeptide library dephosphorylation followed by mass spectrometry (PLDMS), PP2Ac. Type of assay: biochemical. The conditions noted are these: all libraries, 25 nM PP2Ac, 100 µM library, 4 min, 25 °C, pH 7.5; library distribution 60% Ser to 40% Thr. From the text:
In order to determine phosphatase specificity on the phosphopeptide level, we developed an in vitro phosphopeptide library dephosphorylation followed by mass spectrometry approach (PLDMS, Fig. 1a; see the methods for details). In this approach, phosphopeptide libraries would be treated with PP1, PP2A, or left untreated, purified, and analyzed by LC-MS/MS measurements. In the first step, design, synthesis, and validation of phosphopeptide libraries were required. The phosphopeptide libraries were designed to yield an even distribution of amino acids in the different randomized positions and to give high coupling efficiency during synthesis, thus reducing the number of by-products. […]
The individual libraries were incubated with recombinant PP1c or PP2Ac (Supplementary Fig. 1a) and the reaction was stopped by shifting the pH from 7.5 to 3 when 30–50% of the library was dephosphorylated, depending on phosphatase activity (see the methods for details, Supplementary Fig. 1b). Peptides were then separated from the recombinant protein by size-exclusion chromatography (SEC) (Supplementary Fig. 1c) and analyzed by LC-MS/MS (Fig. 1a). […]
For LC-MS analysis, the treated/ctrl peptide libraries were purified by SEC. […] A 0.1 M ammonium acetate buffer (pH 5) was used throughout the column equilibration and purification and the elution profile was recorded at 280 nm. […]

T1 sequence (P67775 1-308 limits assumed): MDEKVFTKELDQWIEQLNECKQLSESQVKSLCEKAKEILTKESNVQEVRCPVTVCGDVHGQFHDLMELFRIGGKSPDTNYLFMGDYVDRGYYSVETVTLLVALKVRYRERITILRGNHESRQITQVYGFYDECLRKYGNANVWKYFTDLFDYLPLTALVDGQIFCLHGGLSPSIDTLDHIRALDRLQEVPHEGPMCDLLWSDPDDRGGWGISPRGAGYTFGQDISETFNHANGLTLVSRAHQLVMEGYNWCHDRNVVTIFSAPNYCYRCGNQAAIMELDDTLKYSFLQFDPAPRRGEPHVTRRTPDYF

Consider “PP2Ac: His-tagged recombinant PPP2CA ΔL309, purchased from Cayman Chemical”, for which the “pThr share of all sites dephosphorylated by PP2Ac” value was 83%.
